Like-named read-outs stand apart in the source and are kept apart here. Values belong to the substance of their own block, whether it stands above or below them.
Tests used:
[1] = molecular target: human Angiotensin II Type 1 receptor (human) (UniProt P30556)
[2] = molecular target: human Angiotensin II Type 1 receptor (human) (UniProt P30556); remark: listed apart in the source
[3] = molecular target: human Angiotensin II Type 1 receptor (human) (UniProt P30556); remark: listed apart in the source
[4] = molecular target: human Angiotensin II Type 1 receptor (human) (UniProt P30556); remark: listed apart in the source
[5] = molecular target: human Angiotensin II Type 1 receptor (human) (UniProt P30556); remark: listed apart in the source
[6] = molecular target: human Angiotensin II Type 1 receptor (human) (UniProt P30556); experiment: radioligand binding
[7] = molecular target: human Angiotensin II Type 1 receptor (human) (UniProt P30556); remark: listed apart in the source

Chain of human Angiotensin II Type 1 receptor (human) (P30556 whole entry): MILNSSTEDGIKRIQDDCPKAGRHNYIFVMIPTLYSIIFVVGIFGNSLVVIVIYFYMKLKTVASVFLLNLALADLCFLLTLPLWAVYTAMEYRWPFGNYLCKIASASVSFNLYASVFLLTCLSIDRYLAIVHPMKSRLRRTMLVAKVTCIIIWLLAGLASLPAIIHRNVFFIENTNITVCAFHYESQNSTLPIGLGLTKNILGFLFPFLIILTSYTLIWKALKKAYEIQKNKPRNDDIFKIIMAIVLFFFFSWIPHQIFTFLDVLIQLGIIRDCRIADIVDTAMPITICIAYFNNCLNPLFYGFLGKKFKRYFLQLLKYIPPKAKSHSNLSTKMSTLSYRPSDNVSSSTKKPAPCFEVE

Substance: AngII analog 20 (4ThzAla at position 8) (peptide)
- Gαq activation (GABY BRET sensor, HEK293 cells expressing AT1R), EC50 [1]: 14 nM

Substance: AngII analog 11 (Tyr(Me) at position 8) (peptide)
- Gαq activation (GABY BRET sensor, HEK293 cells expressing AT1R), EC50 [3]: 1.1 nM
- β-arrestin2 recruitment (BRET, HEK293 cells expressing AT1R), EC50 [3]: 0.36 nM

Substance: AngII analog 29c ((p-Cl)Phe at position 8) (peptide)
- Gαq activation (GABY BRET sensor, HEK293 cells expressing AT1R), EC50 [4]: 2.5 nM

Substance: AngII analog 15 (Dip at position 8) (peptide)
- Gαq activation (GABY BRET sensor, HEK293 cells expressing AT1R), EC50 [3]: 7.9 nM

Substance: AngII analog 23b ((m-CN)Phe at position 8) (peptide)
- Gαq activation (GABY BRET sensor, HEK293 cells expressing AT1R), EC50 [4]: 5.9 nM

Substance: AngII analog 16 (Ser(Bzl) at position 8) (peptide)
- Gαq activation (GABY BRET sensor, HEK293 cells expressing AT1R), EC50 [3]: > 10000 nM

Substance: AngII analog 28b ((m-Br)Phe at position 8) (peptide)
- Gαq activation (GABY BRET sensor, HEK293 cells expressing AT1R), EC50 [4]: 1.9 nM

Substance: AngII analog 30b ((m-F)Phe at position 8) (peptide)
- Gαq activation (GABY BRET sensor, HEK293 cells expressing AT1R), EC50 [4]: 2.4 nM

Substance: AngII analog 14 (p-tBuPhe at position 8) (peptide)
- β-arrestin2 recruitment (BRET, HEK293 cells expressing AT1R), EC50 [3]: 26 nM

Substance: AngII analog 13 (Bip at position 8) (peptide)
- β-arrestin2 recruitment (BRET, HEK293 cells expressing AT1R), EC50 [3]: 15 nM

Substance: AngII analog 23a ((o-CN)Phe at position 8) (peptide)
- Gαq activation (GABY BRET sensor, HEK293 cells expressing AT1R), EC50 [5]: > 10000 nM
- β-arrestin2 recruitment (BRET, HEK293 cells expressing AT1R), EC50 [5]: < 2.5 nM

Substance: TRV027 (peptide)
- Ki [6]: 6.6 nM

Substance: AngII analog 29b ((m-Cl)Phe at position 8) (peptide)
- Gαq activation (GABY BRET sensor, HEK293 cells expressing AT1R), EC50 [4]: 1.5 nM

Substance: AngII analog 12 (Tyr(Bzl) at position 8) (peptide)
- Gαq activation (GABY BRET sensor, HEK293 cells expressing AT1R), EC50 [3]: > 10000 nM
- β-arrestin2 recruitment (BRET, HEK293 cells expressing AT1R), EC50 [3]: 2.5 nM

More lines, now with the values ahead:

- Ki [2]: 0.23 nM
Substance: AngII analog 11 (Tyr(Me) at position 8) (from UniProt P01019)

- Gαq activation (GABY BRET sensor, HEK293 cells expressing AT1R), EC50 [4]: 1.7 nM
Substance: AngII analog 30c ((p-F)Phe at position 8) (peptide)

- Gαq activation (GABY BRET sensor, HEK293 cells expressing AT1R), EC50 [4]: 4.5 nM
Substance: AngII analog 27b ((m-I)Phe at position 8) (peptide)

- Gαq activation (GABY BRET sensor, HEK293 cells expressing AT1R), EC50 [4]: 4.4 nM
Substance: AngII analog 22b ((m-NO2)Phe at position 8) (peptide)

- Gαq activation (GABY BRET sensor, HEK293 cells expressing AT1R), EC50 [4]: 4.6 nM
Substance: AngII analog 24b ((m-OH)Phe at position 8) (peptide)

- Gαq activation (GABY BRET sensor, HEK293 cells expressing AT1R), EC50 [7]: 1 nM
Substance: AngII analog 30a ((o-F)Phe at position 8) (peptide)

- Gαq activation (GABY BRET sensor, HEK293 cells expressing AT1R), EC50 [7]: 2.1 nM
Substance: AngII analog 24a ((o-OH)Phe at position 8) (peptide)

Reference: article doi:10.1101/2025.08.13.670122
